Data: article PMC8624160

target: thrombin (UniProt P00734;P00734 328-363;364-622); assay: fluorescence attenuation kinetics (kapp); Binding buffer, salt, pH and temperature not given in the material (PBS listed among reagents); ex/em 333/426 nm, constant SITS-aptamer, thrombin titrated, trip

| Binder | Kd |
| --- | --- |
| GTCCGTGGTAGGGCAGGTTGGGGTGAC (structured_DNA, 5' NH2-(CH2)6 linker coupled to SITS) [SITS-Thrombin27 5'] | 1590 nM |
| GGTTGGTGTGGTTGG (structured_DNA, 3' (CH2)6-NH2 linker coupled to SITS) [SITS-Thrombin15 3'] | 4980 nM |
| GGTTGGTGTGGTTGG (structured_DNA, 5' NH2-(CH2)6 linker coupled to SITS) [SITS-Thrombin15 5'] | 10800 nM |
| AGTCCGTGGTAGGGCAGGTTGGGGTGACT (structured_DNA, 3' (CH2)6-NH2 linker coupled to SITS) [SITS-Thrombin29 3'] | 180 nM |
| GTCCGTGGTAGGGCAGGTTGGGGTGAC (structured_DNA, 3' (CH2)6-NH2 linker coupled to SITS) [SITS-Thrombin27 3'] | 437 nM |
| AGTCCGTGGTAGGGCAGGTTGGGGTGACT (structured_DNA, 5' NH2-(CH2)6 linker coupled to SITS) [SITS-Thrombin29 5'] | 851 nM |
